Measured values published in the supplement of paper PMC10567573.

B1: PPP2R2B (parent)
chain: PSNRSFFSEIISSISDVKFSHSGR
B2: NCF4 (parent)
chain: FVKILKDFPEEDDPTNWLRCYYYE

Variants of: B1
Test: protein stability index of a GFP-peptide fusion (GPS, HEK-293T) (PSI 1-6); higher = more stable
Conditions: c terminus: a fixed tail appended
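Further: lentivirally expressed fusions sorted by FACS into six bins by GFP to DsRed ratio, PSI derived from sequencing read proportions per bin multiplied by bin number.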

Protein stability index: each site, then its substitutions
P1: V 1.72, Q 2.4, N 2.42, Y 2.95, E 2.42, H 1.8, A 2.19, C 2.05, W 1.83, T 2.39, K 2.56, R 2.34, I 2.02, S 2.21, F 1.89, L 2.19, M 2.24, G 2.69, D 2.77
S5: E 2.9, P 2.88, V 1.96, Q 2.42, T 2.31, A 2.31, L 2.13, R 2.64, Y 2.04, C 1.65, N 2.36, D 2.46, F 2.54, G 2.59, W 2.1, H 2.91, I 1.91, K 2.17, M 2.65
F7: I 2.87, S 4.24, V 2.24, R 3.32, D 3.56, P 2.87, N 3.48, G 3.42, Q 3.64, A 3.38, W 2.41, T 2.79, Y 2.51, K 3.26, L 2.25, H 3.32, E 3.69, M 2.79, C 2.83
N3: L 2.17, E 2.03, R 2.35, Y 2.55, M 2.13, C 2.19, F 2.06, K 2.12, W 2.75, I 1.83, A 2.27, P 2.49, S 2.57, V 1.74, H 2.72, Q 2.4, G 2.19, D 2.32, T 2.14
I10: S 3.09, C 2.91, N 3.09, P 3.44, W 2.33, L 1.79, T 3.37, A 3.33, K 3.11, E 3.64, Y 3.01, H 2.98, R 2.79, D 3.13, F 2.43, V 2.83, M 2.62, Q 3.06, G 3.39
S8: P 2.69, I 2.84, L 2.04, M 2.43, F 2.11, D 2.32, W 1.98, A 1.91, Y 1.91, R 2.33, G 2.41, H 2.31, N 2.44, T 2.62, E 2.57, V 1.52, K 2.36, Q 2.33, C 1.7
S15: L 2.13, N 2.77, D 2.83, P 2.85, Q 2.31, M 2.08, V 2.27, W 2.34, K 2.35, G 2.65, A 1.73, F 1.79, T 2.05, E 2.93, C 1.81, Y 2.05, I 2.26, H 2.39, R 2.25
D16: E 2.28, C 1.92, A 2.34, F 1.66
S13: D 2.58, K 2.19, R 2.63, M 1.76, Q 2.82, L 2.45, V 1.99, W 2.34, C 2.19, G 2.37, A 1.87, T 2.64, I 2.5, Y 1.65, E 3.26, N 2.79, F 1.73, H 2.67, P 2.99
S2: Q 2.45, K 1.92, M 2.17, G 2.66, H 2.44, F 1.99, D 2.85, A 2.54, T 2.44, N 2.29, R 2.61, Y 2.64, L 1.95, P 2.65, C 2.4, E 2.55, V 2.29, W 2.18, I 2.02
F6: E 3.22, I 2.81, V 2.66, G 3.31, A 3.05, S 3.07, L 2.39, C 2.38, P 3.02, R 3.02, K 2.99, Q 2.89, M 2.76, D 3.53, H 2.99, W 2.32, Y 2.52, T 3.4, N 2.9
E9: F 1.63, K 2.23, R 2.2, M 1.47, H 1.99, N 2.36, L 2.58, P 2.45, W 1.91, S 2.26, Q 2.31, I 3.63, T 2.17, G 2.64, V 2.15, C 2.03, A 2.12, Y 1.95, D 2.44
R4: N 2.2, C 1.83, T 2.48, M 2.1, S 2.8, K 2.54, P 2.8, W 1.4, D 3.49, Y 1.86, G 3.02, L 2.41, F 1.81, A 2.64, Q 2.66, E 2.81, V 2.47, H 2.1, I 2.79
I11: D 3.46, F 4.67, Y 3.4, G 3.36, S 3.2, C 4.01, L 2.3, N 3.21, V 3.26, K 3, W 2.59, T 3.19, R 2.97, A 3.34, P 3.57, H 3.46, Q 3.04, E 3.59, M 2.69
S12: K 2.49, H 2.32, Q 2.33, I 3.11, F 1.72, E 2.57, T 2.28, M 2.04, Y 2.3, A 2.23, L 1.69, R 2.31, P 2.65, G 2.54, D 2.54, W 1.98, V 1.82, N 2.5, C 2.06
I14: E 4, Y 2.19, V 2.81, K 3.17, N 3.05, Q 3.18, G 3.26, D 3.04, F 2.17, R 3.05, T 3.09, A 2.79, S 3.19, L 2.54, P 3.05, C 2.46, H 2.79, M 2.6, W 2.4

Variants of: B2
Test: as above
Conditions: c terminus: a fixed tail appended

Protein stability index: each site, then its substitutions
Y22: P 1.41, T 2.94, W 2.28, Q 3.25, S 1.38, R 2.46, V 1.03
Y23: N 1.51, I 1.5, L 1.39, G 1.96, T 1.57, D 1.57, H 1.51, P 3.56, M 2.06, E 2.52, S 1.83, V 1.3, R 1.96, W 1.78, F 2.27, C 1.49, Q 1.73, A 1.75, K 1.73
E24: W 1.6, D 1.39, Y 1.47, V 2.32, M 2.05, C 3.79, S 1.98, H 2.4, N 1.5, R 1.51, I 2.39, K 1.99, F 2.3, A 2.33, L 2.95, T 1.23, G 1.54, P 2.12, Q 2.5
